Target: reduced RNase (reduced pancreatic RNase)

B1: bovine QSOX1 (quiescin Q6 sulfhydryl oxidase 1) isolated from milk (protein)
chain: SALYSSSDPLTLLRADTVRSTVLGSSSAWAVEFFASWCGHCIAFAPTWKALANDVKDWRPALNLAALDCAEETNSAVCRDFNIPGFPTVRFFKAFSKTGSGTTLSVAGADVQTLRERLIDALESHSDTWPPACPPLEPARLEEITGFFARNNEEYLALIFEKEGSYLGREVTLDLSQHQGIAVRRVLNTERDVVNRFGVTNFPSCYLLSRNGSFSRVPALTESRSFYTTYLRKFSGSTRGAVQTTAAPATTSAVAPTVWKVADRSKIYMADLESALHYILRIEVGKFSVLEGQRLVALKKFMAVLAKYFRGRPLVQNFLHSMNDWLKKQQRKKIPYGFFKNALDSRKEGTVIAEKVNWVGCQGSEPHFRGFPCSLWILFHFLTVQAAQEGVDHPQERAKAQEVLQAIRGYVRFFFGCRECAGHFEQMASGSMHRVGSLNSAVLWFWSSHNKVNARLAGAPSEDPQFPKVQWPPRELCSACHNELRGTPVWDLDNILKFLKTHFSPSNIVLDFPSAGPGPWR
Question: Which KM does the source give for B1 here?
Answer: 60 µM

Question: What about the kcat (min^-1), thiols oxidized per minute of the same protein?
Answer: 1340 min⁻¹

Question: What about the kcat/KM of the same protein?
Answer: 374000 M⁻¹ s⁻¹

Source: patent publication US20090042269
